In assay [1] the target is T1, α-synuclein (UniProt P37840 1-140). The experiment in a line: phage display panning on immobilised antigen.
A further assay deals with T2, Rev-[…] (HIV).
T2 construct: also called HIV-Rev-EPEA
The experiment in a line: colocalisation in double-transfected HeLa cells, confocal microscopy.

In assay [2] the target is T1, α-synuclein. The experiment in a line: ITC, 310.1 K.
Assay [3] deals with T1, α-synuclein. Put plainly: ITC, 298.1 K.
Assay [4] has as its target T1, α-synuclein. Put plainly: ITC, 303.1 K.
The target in a further assay is Nb458-… (CA2944). Put plainly: affinity capture on NbSyn2 sepharose, elution with 1 M NaCl, SDS-PAGE.
Assay [5] has as its target T3, Nb458-gaaEPEA (CA2945).
T3 construct: also called Nb458 tagged with the gaaEPEA tag
The description is as above.

Assay [6] has as its target T1, α-synuclein. Put plainly: ITC, 293.1 K.
The target of another assay is T4, β-synuclein (UniProt Q16143 1-134).
T4 construct: also called beta-synuclein
T4 sequence (Q16143 whole entry): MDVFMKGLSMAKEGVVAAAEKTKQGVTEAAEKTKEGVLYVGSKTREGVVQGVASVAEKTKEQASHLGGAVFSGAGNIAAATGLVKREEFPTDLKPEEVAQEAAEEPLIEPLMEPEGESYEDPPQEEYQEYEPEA
The experiment in a line: phage display panning on immobilised antigen.

Assay [7] addresses T3, Nb458-gaaEPEA (CA2945). Put plainly: ELISA: Nb458-gaaEPEA coated at 0.1 or 0.01 µg/well, detected with biNbSyn2 alkaline phosphatase conjugate at dilutions 1/250 to 1/4000, OD405 after 60 minutes.
For assay [8], the target named is T1, α-synuclein. The experiment in a line: 15N-1H HSQC NMR titration.

Residue numbers refer to the chain shown, from its start.

T3 sequence (VHH, as listed by the source): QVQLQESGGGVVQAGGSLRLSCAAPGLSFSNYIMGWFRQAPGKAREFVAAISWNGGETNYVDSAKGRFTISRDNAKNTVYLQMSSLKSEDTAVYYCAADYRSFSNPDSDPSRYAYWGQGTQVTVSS

B1: NbSyn1b (VHH)
VHH: DVQLVESGGGSVQAGGSLRLSCAPSGLNASSYCMGWFRQSPGKEREGVARINGNAGIKTAYADSVKDRFTLSRDNAKNTVYLQMNSLKAEDSAMYYCAAKSSPGYCGGNWDNFGYWGQGTQVTVSS
Consider B1, for which the binding result with α-synuclein [1] is given as “binds”.

B2: NbSyn1a-mKO1 (VHH)
VHH: B1 VHH with D1E, R19S, S21A, M94I, Y96F
notes: not shown: mKO1, mKusabira orange fluorescent protein
With B2, the binding result in the assay with Rev-[…] is reported as “binds”.

B3: NbSyn1a-GFP (VHH)
VHH: B1 VHH with D1E, R19S, S21A, M94I, Y96F
With B3, the binding result in the assay with Rev-[…] was “binds”.

B4: NbSyn1c (VHH)
VHH: B1 VHH with D1Q, S25L
On to B4, for which the binding result with α-synuclein [1] is “binds”.

B5: NbSyn1a (VHH)
VHH: B1 VHH with D1E, R19S, S21A, M94I, Y96F
As to B5, in the assay with α-synuclein [1], the binding result is given as “binds”.

B6: NbSyn2 (VHH)
VHH: QGQLVESGGGSVQAGGSLRLSCAASGIDSSSYCMGWFRQRPGKEREGVARINGLGGVKTAYADSVKDRFTISRDNAENTVYLQMNSLKPEDTAIYYCAAKFSPGYCGGSWSNFGYWGQGTQVTVSS
notes: also called His-tagged NbSyn2; NbSyn2-His6tagged
Turning to B6, the Kd in the assay with α-synuclein [2] worked out at 260 nM; with α-synuclein [4] it was 99 nM. The Stoichiometry with α-synuclein [2] was 0.91; with α-synuclein [3] it was 0.93; in the assay with α-synuclein [4], 0.87; with α-synuclein [6] it was 0.99. The binding result in the assay with Nb458-… (CA2944) and in the assay with Nb458-gaaEPEA (CA2945) [5] was “binds” each time.

B7: Nb86 (VHH)
VHH: QVQLQESGGGSVQAGGSLRLSCALSGYTFRGNRMAWFRQAPGKEREGVARINTGGVNTYVADSVKGRFTISQDNAKNTVYLQMNNLQPEDTAMYFCAADLTGWRPVGFSGYNYWGQGTQVTVSS
Take B7: the binding result in the assay with β-synuclein was “binds”.

B8: Nb85 (VHH)
VHH: QVQLQESGGGSVQAGGSLRLSCAASGLTYSNYCMGWFRQAPGKAREVVARISTRGIKTYYADSVNGRFTISRDNAKNMVYLQMNSLKPEDTAIYYCAAVIYPGYGDSCPWTTSVNYWGQGTQVTVSS
notes: also called NbSyn85
B8: in the assay with β-synuclein, the binding result is “binds”.

B9: biNbSyn2 alkaline phosphatase conjugate (VHH)
chain: QVQLVESGGGSVQAGGSLRLSCAASGIDSSSYCMGWFRQRPGKEREGVARINGLGGVKTAYADSVKDRFTISRDNAENTVYLQMNSLKPEDTAIYYCAAKFSPGYCGGSWSNFGYWGQGTQVTVSSGGGGSGGGSQVQLQESGGGSVQAGGSLRLSCAASGIDSSSYCMGWFRQRPGKEREGVARINGLGGVKTAYADSVKDRFTISRDNAENTVYLQMNSLKPEDTAIYYCAAKFSPGYCGGSWSNFGYWGQGTQVTVSSHHHHHH
notes: also called biNbSyn2-AP; bivalent NbSyn2
Turning to B9, the binding result in the assay with Nb458-gaaEPEA (CA2945) [7] is on record as “binds”.

B10: Nb87 (VHH)
VHH: QVQLQESGGGSVQTGGSLRLSCVASGYSGYMAWFRQAPGKEREGIAAIYRGDKITYYAHSVQGRFTISQANAKNTVYLLMNSLKPEDTAIYYCAARRVVADSPLLSKTYAYWGQGTQVTVSS
Turning to B10, the binding result with α-synuclein [8] and in the assay with β-synuclein was “binds” in each case.

The values are drawn from patent US20130115635A1 (VIB VZW, published 2013).
